# Measurements taken from IntAct's records for PubMed 24500646.
# B1: DDB1- and CUL4-associated factor 8 (Homo sapiens), Q5TAQ9 (parent)
# chain: MSSKGSSTDGRTDLANGSLSSSPEEMSGAEEGRETSSGIEVEASDLSLSLTGDDGGPNRTSTESRGTDTESSGEDKDSDSMEDTGHYSINDENRVHDRSEEEEEEEEEEEEEQPRRRVQRKRANRDQDSSDDERALEDWVSSETSALPRPRWQALPALRERELGSSARFVYEACGARVFVQRFRLQHGLEGHTGCVNTLHFNQRGTWLASGSDDLKVVVWDWVRRQPVLDFESGHKSNVFQAKFLPNSGDSTLAMCARDGQVRVAELSATQCCKNTKRVAQHKGASHKLALEPDSPCTFLSAGEDAVVFTIDLRQDRPASKLVVTKEKEKKVGLYTIYVNPANTHQFAVGGRDQFVRIYDQRKIDENENNGVLKKFCPHHLVNSESKANITCLVYSHDGTELLASYNDEDIYLFNSSHSDGAQYVKRYKGHRNNATVKGVNFYGPKSEFVVSGSDCGHIFLWEKSSCQIIQFMEGDKGGVVNCLEPHPHLPVLATSGLDHDVKIWAPTAEASTELTGLKDVIKKNKRERDEDSLHQTDLFDSHMLWFLMHHLRQRRHHRRWREPGVGATDADSDESPSSSDTSDEEEGPDRVQCMPS
# Variants of: B1
# Details: with ddb1_human DDB1, Q16531
# ddb1_human DDB1, Q16531, sequence (Q16531 whole entry): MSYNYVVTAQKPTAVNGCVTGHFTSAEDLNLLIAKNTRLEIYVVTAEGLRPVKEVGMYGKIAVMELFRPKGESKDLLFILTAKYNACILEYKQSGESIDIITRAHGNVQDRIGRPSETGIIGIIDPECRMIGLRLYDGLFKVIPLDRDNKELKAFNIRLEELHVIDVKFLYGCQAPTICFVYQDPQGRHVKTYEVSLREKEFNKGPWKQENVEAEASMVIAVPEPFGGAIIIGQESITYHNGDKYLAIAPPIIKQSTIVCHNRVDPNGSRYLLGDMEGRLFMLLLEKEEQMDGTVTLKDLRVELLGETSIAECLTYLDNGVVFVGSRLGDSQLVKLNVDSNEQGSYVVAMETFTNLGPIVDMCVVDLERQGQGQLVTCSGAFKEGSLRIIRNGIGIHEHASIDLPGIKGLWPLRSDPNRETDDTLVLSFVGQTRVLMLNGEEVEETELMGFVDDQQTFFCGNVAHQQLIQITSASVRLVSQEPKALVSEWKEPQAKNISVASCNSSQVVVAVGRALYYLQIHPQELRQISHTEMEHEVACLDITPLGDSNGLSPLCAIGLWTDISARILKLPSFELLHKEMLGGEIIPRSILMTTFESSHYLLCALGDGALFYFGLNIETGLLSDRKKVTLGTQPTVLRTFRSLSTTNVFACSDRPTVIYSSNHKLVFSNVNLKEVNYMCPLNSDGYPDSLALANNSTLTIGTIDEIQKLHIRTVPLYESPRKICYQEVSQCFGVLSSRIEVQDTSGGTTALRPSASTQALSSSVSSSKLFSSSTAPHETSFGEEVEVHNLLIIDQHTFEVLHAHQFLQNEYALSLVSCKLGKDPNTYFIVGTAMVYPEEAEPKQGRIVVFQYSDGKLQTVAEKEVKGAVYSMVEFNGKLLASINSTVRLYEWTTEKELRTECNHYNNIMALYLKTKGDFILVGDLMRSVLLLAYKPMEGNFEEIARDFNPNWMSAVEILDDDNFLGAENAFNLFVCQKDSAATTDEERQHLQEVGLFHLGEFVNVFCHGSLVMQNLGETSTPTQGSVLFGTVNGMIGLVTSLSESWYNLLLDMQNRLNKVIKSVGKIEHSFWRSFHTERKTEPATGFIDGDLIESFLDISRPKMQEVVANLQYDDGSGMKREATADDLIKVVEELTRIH
row,Variant,effect of a mutation on the interaction
1,R314H,decreasing interaction strength
2,R317C,decreasing interaction strength
